Experimental data taken from US6376653 (GlaxoSmithKline, dated 2002).

Target: T1, recombinant Tie2 extracellular domain-Fc fusion (UniProt Q02763 23-748, limits assumed)
T1 construct: extracellular domain; also called Tie2-Fc; Tie2 receptor-Fc fusion; not shown: Fc part
Assay: BIAcore SPR, purified mAb captured on rabbit anti-mouse IgG Fc, Tie2-Fc injected
Protocol: The affinity of the purified mAbs was measured in the BIAcore. Using a flow rate of 10 μl/min, the mAb (diluted in HBS buffer) was injected over a rabbit anti-mouse IgG Fc surface, followed by buffer flow and the RU recorded. Tie2-Fc diluted in HBS buffer was then injected for 120 s followed by buffer flow for 240 s and regeneration of the sensor chip surface with an injection of 15 μl 0.1 M phosphoric acid. BIAcore software was used for association and dissociation-phase analysis. The murine monoclonal antibodies bound to soluble monomeric Tie2 receptor. The on-rates ($kass$) and off-rates ($kdiss$) were calculated.

T1 sequence (Q02763 23-748 limits assumed): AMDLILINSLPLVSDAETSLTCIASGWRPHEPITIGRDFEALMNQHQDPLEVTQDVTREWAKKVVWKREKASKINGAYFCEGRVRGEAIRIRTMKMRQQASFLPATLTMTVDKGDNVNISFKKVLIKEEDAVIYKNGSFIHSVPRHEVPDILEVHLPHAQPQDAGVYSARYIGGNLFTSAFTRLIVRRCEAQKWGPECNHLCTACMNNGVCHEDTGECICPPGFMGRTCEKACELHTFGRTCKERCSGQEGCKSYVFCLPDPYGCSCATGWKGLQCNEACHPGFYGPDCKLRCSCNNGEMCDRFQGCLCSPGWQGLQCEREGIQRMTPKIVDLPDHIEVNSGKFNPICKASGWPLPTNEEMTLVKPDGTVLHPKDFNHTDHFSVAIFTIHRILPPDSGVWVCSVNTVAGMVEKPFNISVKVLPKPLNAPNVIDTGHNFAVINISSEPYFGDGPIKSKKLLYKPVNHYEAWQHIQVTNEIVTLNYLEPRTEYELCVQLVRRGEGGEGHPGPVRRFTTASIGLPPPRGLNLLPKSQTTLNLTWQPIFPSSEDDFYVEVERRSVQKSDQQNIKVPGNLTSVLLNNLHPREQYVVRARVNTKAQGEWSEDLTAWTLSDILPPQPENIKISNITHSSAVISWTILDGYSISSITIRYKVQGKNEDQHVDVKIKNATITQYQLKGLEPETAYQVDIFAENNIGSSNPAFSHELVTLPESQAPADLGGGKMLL

Kd: < 0.1 nM
B1: monoclonal antibody 12H8 (antibody, V domains shown)
VH: EVQLVESGGGLVKPGGSLKLSCAASGFTFSDYGMHWVRQAPEKGLEWVAYINSGSSTITYADTVKGRFTISRDNAKNTLFLQMTSLRSEDTAIYYCARGYYGPYYFDYWGQGTALTVSS
VL: DIVMTQSHKFMSTSVGDRVSFTCKASQNVGTAVAWYQQKPGQSPKLLIYWASSRHTGVPDRFTGSGSGTDFTLTITNVQSEDLADYFCQEYSSYPLTFGVGTKLELK
notes: also called mAb 12H8
